Measured values from patent US20240417436A1 (BRIGHT PEAK THERAPEUTICS, published 2024).
Bridges are numbered along the chain shown (N, C = ends). Primed or numbered codes have the meaning given here. [ ]: non-standard residue; d: D form. Ygp″ = O-(PEG8-amino)-tyrosine (O-(8x polyethylene glycol-amino)-tyrosine); Yn3″ = O-(PEG9-azido)-tyrosine (O-(9x polyethylene glycol-azido)-tyrosine); Ygp = O-(8x polyethylene glycol-amino)-tyrosine; Yn3 = O-(9x polyethylene glycol-azido)-tyrosine; Ygp(3) = O-(PEG8-amino)-tyrosine; Yn3(3) = O-(PEG9-azido)-tyrosine; hSer = N[C@@H](CCO)C(=O)O; Nle = CCCC[C@H](N)C(=O)O

B1: CMP-319 (ligand)
chain: RGRRVANLVGAPTSSSTKKTQLQLEHLLLDLQEILNGINNYKNPKLTR[Nle]L[hSer][Yn3(3)]KF[Ygp(3)][Nle]PKKATELKHLQCLEEELKPLEEVL[hSer]LAQSKNFHLRPRDLISNINVIVLELKGSETTF[hSer]CEYADETATIVEFLNRWITFSQSIISTLT
modifications: lactam N-33; not fully specified (bridges)
B2: CMP-138 (ligand)
chain: APTSSSTKKTQLQLEHLLLDLQ[Nle]ILNGIENYKNPKLTR[Nle]L[hSer][Yn3]KF[Ygp][Nle]PKKATELKHLQCLEEELKPLEEVL[hSer]LAQSKNFHLRPRDLISNINVIVLELKGSETTF[hSer]CEYADETATIVEFLNRWITFSQSIISTLT
modifications: disulfide 58-105; bridge N-29; not fully specified (residue 29, bridges)
B3: CMP-136 (ligand)
chain: APTSSSTKKTQLQLEHLLLDLQ[Nle]ILNGIENYKNPKLTR[Nle]L[hSer][Yn3″]KF[Ygp″][Nle]PKKATELKHLQCLEEELKPLEEVL[hSer]LAQSKNFHLRPRDLISNINVIVLELKGSETTF[hSer]CEYADETATIVEFLNRWITFSQSIISTLT
modifications: disulfide 58-105; bridge N-29; not fully specified (residue 29, bridges); also: cleavable peptide sequence not given here

biological target: T1, Avi-Tag Fc with human IL-2R beta and IL-2R gamma attached (Acrobiosystems ACRB-ILG-H82F3-25UG) (human, UniProt P14784 27-239; P31785 23-262); experiment: BLI (Octet), receptor on SAX2 sensor, IL-2 as analyte
T1 construct: bought heterodimer; also called CD122 CD132; CD122/CD132 complex
T1 sequence (looked up) 1: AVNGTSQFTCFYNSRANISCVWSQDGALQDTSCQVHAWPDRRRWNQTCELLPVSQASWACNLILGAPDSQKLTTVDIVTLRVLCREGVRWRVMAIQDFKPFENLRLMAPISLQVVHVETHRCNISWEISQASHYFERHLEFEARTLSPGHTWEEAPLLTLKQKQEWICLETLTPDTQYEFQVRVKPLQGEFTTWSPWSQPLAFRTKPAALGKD
T1 sequence (looked up) 2: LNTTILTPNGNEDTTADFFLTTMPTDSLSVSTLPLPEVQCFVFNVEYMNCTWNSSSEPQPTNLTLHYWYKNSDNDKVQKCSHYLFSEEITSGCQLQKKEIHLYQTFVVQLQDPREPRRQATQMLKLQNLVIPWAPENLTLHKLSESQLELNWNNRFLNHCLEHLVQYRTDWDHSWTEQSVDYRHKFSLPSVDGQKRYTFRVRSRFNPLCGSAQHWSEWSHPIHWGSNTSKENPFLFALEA
Experimental: (§1) Bilayer interferometry (BLI) assays were used to measure the binding constants between activatable IL-2 polypeptides (and activated versions thereof) to IL-2 receptor subunits or receptor complexes. BLI assays were conducted on an Octet® R8 instrument. Assay plates were 96 well, polypropylene, F-bottom (chimney well), black microplates (Greiner Bio-one, Cat. No: 655209). The biosensors were Octet® SAX2 (Sartorius, Cat. No: 18-5136). The assay buffer was 1× Kinetic Buffer (Sartorius, Cat. no: 18-5136) or Phosphate Buffered Saline (PBS) that contained 0.02% (v: v) Tween 20 (Polysorbate 20) and 0.1% (w/v) bovine serum albumin (BSA). The sensor was regenerated between measurements in 10 mM glycine pH 2.7 buffer.
(§2) Sensor attached receptors were either recombinant human IL-2 receptor beta containing a His-tag and Avi-Tag™ (R&D Systems™ #AVI10459) or an Avi-Tag™ Fc with human IL-2R beta and IL-2R gamma attached (Acrobiosystems Cat. no: ACRB-ILG-H82F3-25UG). Receptors were reconstituted from lyophilized powder to 500 μg/ml in PBS. Analytes were diluted in Kinetic buffer to 300 nM, then serially diluted to lower concentrations.

For B1, which Kd is on record?
The Kd was 9.19 nM.

And the koff?
The koff was 0.000786 s⁻¹.

And the kon?
Its kon is 85500 M⁻¹ s⁻¹.

For B2, which Kd is on record?
Its Kd is 12.3 nM.

And the koff?
The koff was 0.00284 s⁻¹.

And the kon?
Its kon is 232000 M⁻¹ s⁻¹.

With B3 as the binder, how does the Kd read?
Its Kd is 12.6 nM.

What about the koff of the same binder?
Its koff is 0.00498 s⁻¹.

What about the kon of the same binder?
The kon was 396000 M⁻¹ s⁻¹.

biological target: T2, recombinant human IL-2 receptor beta containing a His-tag and Avi-Tag (R&D Systems #AVI10459) (human, UniProt P14784 27-239); experiment: as above
T2 construct: bought protein, held on the Octet SAX2 sensor; also called CD122; IL-2Rβ
T2 sequence (looked up): T1 sequence (looked up) 1
Experimental: as §1, §2

Which results are given for B1?
Kd: 59.5 nM; koff: 0.0122 s⁻¹; kon: 206000 M⁻¹ s⁻¹

With B2 as the binder, how does the Kd read?
Its Kd is 11.7 nM.

What about the koff of the same binder?
The koff was 0.0105 s⁻¹.

And the kon?
Its kon is 898000 M⁻¹ s⁻¹.

B3 was tested. Which Kd did it give?
The Kd was 8.44 nM.

And the koff?
Its koff is 0.00767 s⁻¹.

What about the kon of the same binder?
Its kon is 909000 M⁻¹ s⁻¹.
